Test results as given in the RNAGym collection of RNA variant scans (doi:10.1073/pnas.2313332121).
This sample holds only a part of the variants without activity.

B1: TPR 5TU (parent)
chain: GGAUCUUCUCGAUCUAACAAAAAAGACAAAUCUGCCACAAAGCUUGAGAGCAUCUUCGGAUGCAGAGGCGGCAGCCUUCGGUGGCGCGAUAGCGCCAACGUUCUCAACUAUGACACGCAAAACGCGUGCUCCGUUGAAUGGAGUUUAUCAUG

Variants of: B1
Test: polymerase ribozyme fitness, log enrichment relative to wild type (log ratio); higher = more active; in vitro selection for triplet polymerase activity
In short: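 Input and output libraries were sequenced on Illumina after a single in vitro selection round, run in triplicate on PCR-built, transcribed mutant libraries of each subunit of a heterodimeric triplet polymerase ribozyme. Selection annealed libraries to a biotinylated primer, the partner subunit and triplets, incubated them frozen at −7 °C, then gel-excised extended constructs for streptavidin-bead capture and RT-PCR. Genotypes with ≥10 input reads and ≥1 read per output were kept. Fitness is the logarithm, taken in base 2, of genotype enrichment divided by wild-type enrichment, using inverse-variance-weighted replicate averages.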

Row | Variant | polymerase ribozyme fitness (log ratio)
1 | GGAUGUUCUCGGUCUAACAAAUAAGACAAAUCUGCCAAAAAGCGUGAGAGCAUCUUCGGAUGCAGAGGCGGCAGACUUUGGUGGCGCGAUAGAGCCAACGUUCUCAACUAUGACACGCAAAACGCGUGCUCCUUUGAAUGGAGUUUAUCAUG [C5G A12G A22U C38A U44G C75A C79U C93A G133U] | ≤ -4.2
2 | GGAUAUUCACGAUCUAACAAAAAAGACAAAUCUGCCACAAGGCUUGAGAGCAUCUUCGGAUGCAGAGGCGGCAGCGUUCGGUGGCGCGAUUGCGCCAACGUUCUCAACUAUGACACGCAAAACGCAUGCUCCGUUAAAUGGAGUUUAUCAUG [C5A U9A A41G C76G A91U G126A G136A] | ≤ -4.2
3 | GGAUGUUCUCGGUCUAACAACAAAGUCAAAUCUGCCAGAAAGCUUGAGAGCAUCUUCGGAUGCAGAGGCGGCAGCCAUCGGUGGCGCGAUAGCGCCAACGUUCUCAACUAUGACACGUAAAACGCGUGCUCCGUUGAAUGGAGUUUAUCAUG [C5G A12G A21C A26U C38G U77A C118U] | ≤ -4.2
4 | GGAUAUCCUCGAUCUAACAAAUAAGACAAAUCUGCCACAAAGCUUGAGAGCAUCUUCGGAUGCAGAGGCGGCAGCCUUCGGUGGCGCGAUAGCGCCAACGUUGUCAACUAUGACACGCAAAACGCGUGCUCCGUUGAAUGGAGUUUAUCAUG [C5A U7C A22U C103G] | -2.38
5 | GGAUGUUCUCGAUCUAACGAAAACGACAAAUCUGCCACAUAGCUUGAGAGCAUCAUCGGAUGCAGAGGCGGCAGCCUUCGGUUGCUCGAUAGCGCCAACGUUCUCAACUAUGACACGCAAAACGCGUGCUCCGUUGAAUGGAGUUUAUCAUG [C5G A19G A24C A40U U55A G83U G86U] | ≤ -4.2
6 | GGAUGUUCUCGAUCUAACACAAAAGACAAAUCUGCCACAAAGCUUGACAGCAUCUACGGAUACAGAGGCGGCAGCCUUCGGUGGCGCGAUAGCGCCAACGUUCUCAACUAUGACACGCAAAACGCGUGCUCCGUUGAAUGGAGUUUAUCAUG [C5G A20C G48C U56A G62A] | -4.11
7 | GGAUAUUCUCGAUCUAACAAAAAAGACAAAUCUGCCACAAAGCUUGAGAGCAUCUUCGGAAGCAGAGGCGGCAGCCUUCGGUGGCGCGAUAGCGCCAACGUGCUCAACUAUGACACGCAAAACGCGUGCUCCGUUGAAUGGAGUUUAUCAUG [C5A U61A U102G] | ≤ -4.2
8 | GGAUAUUCGCGAUCUAACAAAAAAGACAAAUCUGCCACAAAGCUUGAGAGCAUCUUCGGAUGCAGAGGCGGCGGCCUUCGGUGGCGUGAUAGCGCCAACGUUCUCAACUAUGACACGCAUAAUGCGUGCUCCGUUGAAUGGAGUUUGUCAUG [C5A U9G A73G C87U A120U C123U A147G] | -3.95
9 | GGAUGUUCUCGAUCUGACAAAAAAGACAAAUCUGUCACAAAGCUUGAGAGCAUCUUCGGAUGAAGAGGCGGCAGCCUUCGGUGGUGCGAUAGCGCCAACGUUCUCAACUAUGACACGCAAAACGCGUGCUCCGUUGAAUGGAGUUUAUCAUG [C5G A16G C35U C63A C85U] | -1.82
10 | GGAUAUUCUCGAUCUAACAAAAAAGACAAAUCUGCCACAAAGCUGGAGAGCAUCUUCGGAUGCAGAGGCGGCAGCCUUCGGUGGUGCGAUAGCGCCAACGUUCUCAACUAUGACUCGCAAAACGCGUGCUCCGUUGAAUGUAGUUUAUCAUG [C5A U45G C85U A115U G141U] | -3.86
11 | GGAUAUUCUCGAUCUAACAAAAAAGACAAAUCUGCCACAAAGCUGGAGAGCAUCUUCGGAUGCAGAGGCGGCAGCCUUCGGUGGGGCGAUAGCGCCAACGUUCUCAACUAUGACACGCAAAACGCGUGCUCCGUUGAAUGGAGUUUAUCAUG [C5A U45G C85G] | -2.33
12 | GGAUGUUCUCGAUCUAACAGAAAAGACAAAUCUGCCACAAAGCUUGAGAGUAUCUUCGGAUGCAGAGGCGGCAGCCUUCGGUGGCGCGAUAGCGCCAACGUUCUCGACUAUGACACGCAAAACGCGUGCUCCGUUGAAUGGAGUUUAUCAUG [C5G A20G C51U A106G] | -1.64
13 | GGAUAUUCUCGAUCCAACAAAAAAGACAAAUCUGCCACAAAGCUUGAGAGCAUCUACGGAUGCAGAGGCGGCAGCCUUCGGUGGCGCGAUAGCGCCAACGUUCUGACCUAUGACACUCAAAACGCGUGCUCCGUUGAACGGACUUUACCAUG [C5A U15C U56A C105G A107C G117U U139C G143C U148C] | ≤ -4.2
14 | GGAUGUUCUCGAUCUAACGAAAAAGACACAUCUGCCACCAAGCUUGAGAGCAUCUUCGGAUGCAGAGGCGGCAGCCUUCGGUGGCGCGAUAGCGCCAACGUUCUCAACUAUGACACGCAAAACGCGUGCUCCGUUGAAUGGAGUCUAUCAUG [C5G A19G A29C A39C U145C] | ≤ -4.2
15 | GGAUAUUCUCGAGCUAACAAAAAAGAAAAAUCUACCACAAACCUUGAGAGCAUCUUCGGAUGCAGAGGCGGCAGCCUUCGGUGGCGCGAUAGCGCAAACGUUCUCAACUAUGACACGCAAAACGCGUGCUCCGUUGAAUGGAGUUUAUCAUG [C5A U13G C27A G34A G42C C96A] | ≤ -4.2
16 | GGAUAUUCUCGAUCUAACAAAAAAGACAAAUCUGCCACAAAGCUUGAGAGCAUCUUCGGAUGCAGAGGCGGCAGCCUCCGGUGGCGCGUUAGCGUCAACGUUCUCAACUAUGACACGCAAAACGCGUGCUCCGUUGAAUGGAGUUUAUCAUG [C5A U78C A89U C95U] | -1.72
17 | GGAUAUUCUCGAACUAACAAAAAGGACAAAUCUGCCACAAAGCUUGAGAGCAUCUUCGGAUGCAGAGGCGGCAGCCUUCGGCGGCGCGAUAGCGCCAACCUUCUCAACUAUGACACGCAAAACGCGUGCUCCGUUGAAUGGAGUUUAUCAUG [C5A U13A A24G U82C G100C] | ≤ -4.2
18 | GGAUAUGCUCGAUCUAACAAAAAAGACAAAUCUGCCACAAAGCUUGAGAGCAUCUUCGGAUGCAGAGGCGGCAGCCUUCGGUGGCGCUAUAGCGCCAACGUUCUGAACUAUGACACGCAAAACGCGUGCUCCGUUAUAUGGAGUUUAUCAUU [C5A U7G G88U C105G G136A A137U G152U] | ≤ -4.2
19 | GGAUGUUCUCGAUCUAACCAAAAAGACAAAUCUGCCACAAAUCUUGAGAGCAUCUUCGGAUGCAGAGGCGGCAGCCUUUGGUGGCGCGAUAGCGCCAACGUUCUUAACUAUGACACGCAAAACGCUUGCUCCGUUGAAUGGAGUUUAUCAUG [C5G A19C G42U C79U C105U G126U] | ≤ -4.2
